molecular target: T1, PUF4 RNA-binding domain (Saccharomyces cerevisiae, UniProt P25339 537-888); assay: Mg; RNA-MaP; 20 mM Na-HEPES pH 7.4, 30 mM KOAc, 0.75 mM MgCl2, 0.1% Tween-20, 5% glycerol, 0.1 mg/mL BSA, 2 mM DTT; 25 C; 0.0125-409.6 nM protein; conditions: tags: N-His6-TEV cleaved; C-SNAP kept, Cy3B-labelled; label: tethered on chip by stalled RNA polymerase
T1 sequence: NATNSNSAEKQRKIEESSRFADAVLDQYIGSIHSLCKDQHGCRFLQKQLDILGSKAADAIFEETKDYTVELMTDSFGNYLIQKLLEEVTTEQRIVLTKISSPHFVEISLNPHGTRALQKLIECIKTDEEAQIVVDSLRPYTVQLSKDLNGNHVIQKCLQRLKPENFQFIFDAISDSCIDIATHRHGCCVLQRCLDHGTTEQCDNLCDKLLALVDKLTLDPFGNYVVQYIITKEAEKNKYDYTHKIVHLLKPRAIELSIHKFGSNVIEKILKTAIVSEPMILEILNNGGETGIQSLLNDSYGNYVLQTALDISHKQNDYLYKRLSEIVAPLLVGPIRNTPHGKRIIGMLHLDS

Binder | Kd
Id_ii_S2_P3E.3_K3.2_C3.2_[C-2T]_[T-1G]_H3.2_A3.1_F3.1_T3.2_[A10T] (ssRNA) RNA: UUUGAUUAAUAUGAUAUCGUUCUUUCUUGUAUAUAUAUUUUCUUUCUCGAUAUCAUAUUAAUCUUU | 1.25 nM
Id_ii_S2_P3E.3_K3.2_C3.2_[C-2T]_H3.2_A3.1_F3.1_T3.2_[A10C] (ssRNA) RNA: UUUGAUUAAUAUGAUAUCGUUCUUUCUUUUAUAUAUAUCUUCUUUCUCGAUAUCAUAUUAAUCUUU | 130 nM
Id_ii_S2_P3E.3_K3.2_C3.2_[C-2T]_[T-1A]_H3.2_A3.1_F3.1_T3.2_[A10C] (ssRNA) RNA: UUUGAUUAAUAUGAUAUCGUUCUUUCUUAUAUAUAUAUCUUCUUUCUCGAUAUCAUAUUAAUCUUU | 93.1 nM
Id_ii_S2_P3E.3_K3.2_C3.2_[C-2T]_H3.2_A3.1_F3.1_T3.2_[T9G]_[A10T] (ssRNA) RNA: UUUGAUUAAUAUGAUAUCGUUCUUUCUUUUAUAUAUAGUUUCUUUCUCGAUAUCAUAUUAAUCUUU | 253 nM
Id_ii_S2_P3E.3_K3.2_C3.2_[C-2A]_[T-1G]_H3.2_A3.1_F3.1_T3.2_[T9A]_[A10T] (ssRNA) RNA: UUUGAUUAAUAUGAUAUCGUUCUUUCUAGUAUAUAUAAUUUCUUUCUCGAUAUCAUAUUAAUCUUU | 199 nM
Id_ii_S2_P3E.3_K3.2_C3.2_[C-2A]_[T-1C]_H3.2_A3.1_F3.1_T3.2_[T9G]_[A10C] (ssRNA) RNA: UUUGAUUAAUAUGAUAUCGUUCUUUCUACUAUAUAUAGCUUCUUUCUCGAUAUCAUAUUAAUCUUU | 1590 nM
Id_ii_S2_P3E.3_K3.2_C3.2_[C-2A]_[T-1G]_H3.2_A3.1_F3.1_T3.2_[T9A]_[A10C] (ssRNA) RNA: UUUGAUUAAUAUGAUAUCGUUCUUUCUAGUAUAUAUAACUUCUUUCUCGAUAUCAUAUUAAUCUUU | 1960 nM
Id_ii_S2_P3E.3_K3.2_C3.2_[C-2T]_[T-1G]_H3.2_A3.1_F3.1_T3.2_[T9A] (ssRNA) RNA: UUUGAUUAAUAUGAUAUCGUUCUUUCUUGUAUAUAUAAAUUCUUUCUCGAUAUCAUAUUAAUCUUU | 2.25 nM
Id_ii_S2_P3E.3_K3.2_C3.2_[C-2T]_H3.2_A3.1_F3.1_T3.2_[T9C]_[A10C] (ssRNA) RNA: UUUGAUUAAUAUGAUAUCGUUCUUUCUUUUAUAUAUACCUUCUUUCUCGAUAUCAUAUUAAUCUUU | 191 nM
Id_ii_S2_P3E.3_K3.2_C3.2_[C-2T]_H3.2_A3.1_F3.1_T3.2_[A10T] (ssRNA) RNA: UUUGAUUAAUAUGAUAUCGUUCUUUCUUUUAUAUAUAUUUUCUUUCUCGAUAUCAUAUUAAUCUUU | 78.5 nM
Id_ii_S2_P3E.3_K3.2_C3.2_[C-2T]_H3.2_A3.1_F3.1_T3.2_[T9G]_[A10C] (ssRNA) RNA: UUUGAUUAAUAUGAUAUCGUUCUUUCUUUUAUAUAUAGCUUCUUUCUCGAUAUCAUAUUAAUCUUU | 277 nM
Id_ii_S2_P3E.3_K3.2_C3.2_[C-2T]_[T-1G]_H3.2_A3.1_F3.1_T3.2_[A10C] (ssRNA) RNA: UUUGAUUAAUAUGAUAUCGUUCUUUCUUGUAUAUAUAUCUUCUUUCUCGAUAUCAUAUUAAUCUUU | 1.72 nM
Id_ii_S2_P3E.3_K3.2_C3.2_[C-2T]_[T-1G]_H3.2_A3.1_F3.1_T3.2_[A10G] (ssRNA) RNA: UUUGAUUAAUAUGAUAUCGUUCUUUCUUGUAUAUAUAUGUUCUUUCUCGAUAUCAUAUUAAUCUUU | 1.52 nM
Id_ii_S2_P3E.3_K3.2_C3.2_[C-2A]_[T-1G]_H3.2_A3.1_F3.1_T3.2_[T9C]_[A10C] (ssRNA) RNA: UUUGAUUAAUAUGAUAUCGUUCUUUCUAGUAUAUAUACCUUCUUUCUCGAUAUCAUAUUAAUCUUU | 1900 nM
Id_ii_S2_P3E.3_K3.2_C3.2_[C-2A]_[T-1C]_H3.2_A3.1_F3.1_T3.2_[T9C]_[A10C] (ssRNA) RNA: UUUGAUUAAUAUGAUAUCGUUCUUUCUACUAUAUAUACCUUCUUUCUCGAUAUCAUAUUAAUCUUU | 245 nM
Id_ii_S2_P3E.3_K3.2_C3.2_[C-2T]_H3.2_A3.1_F3.1_T3.2_[T9A]_[A10C] (ssRNA) RNA: UUUGAUUAAUAUGAUAUCGUUCUUUCUUUUAUAUAUAACUUCUUUCUCGAUAUCAUAUUAAUCUUU | 262 nM
Id_ii_S2_P3E.3_K3.2_C3.2_[C-2T]_[T-1A]_H3.2_A3.1_F3.1_T3.2_[A10G] (ssRNA) RNA: UUUGAUUAAUAUGAUAUCGUUCUUUCUUAUAUAUAUAUGUUCUUUCUCGAUAUCAUAUUAAUCUUU | 554 nM
Id_ii_S2_P3E.3_K3.2_C3.2_[C-2T]_[T-1G]_H3.2_A3.1_F3.1_T3.2_[T9G]_[A10T] (ssRNA) RNA: UUUGAUUAAUAUGAUAUCGUUCUUUCUUGUAUAUAUAGUUUCUUUCUCGAUAUCAUAUUAAUCUUU | 3.83 nM
Id_ii_S2_P3E.3_K3.2_C3.2_[C-2T]_[T-1C]_H3.2_A3.1_F3.1_T3.2_[T9G]_[A10T] (ssRNA) RNA: UUUGAUUAAUAUGAUAUCGUUCUUUCUUCUAUAUAUAGUUUCUUUCUCGAUAUCAUAUUAAUCUUU | 1030 nM
Id_ii_S2_P3E.3_K3.2_C3.2_[C-2A]_[T-1G]_H3.2_A3.1_F3.1_T3.2_[T9A] (ssRNA) RNA: UUUGAUUAAUAUGAUAUCGUUCUUUCUAGUAUAUAUAAAUUCUUUCUCGAUAUCAUAUUAAUCUUU | 809 nM
Id_ii_S2_P3E.3_K3.2_C3.2_[C-2T]_[T-1C]_H3.2_A3.1_F3.1_T3.2_[T9C]_[A10T] (ssRNA) RNA: UUUGAUUAAUAUGAUAUCGUUCUUUCUUCUAUAUAUACUUUCUUUCUCGAUAUCAUAUUAAUCUUU | 88 nM
Id_ii_S2_P3E.3_K3.2_C3.2_[C-2A]_[T-1C]_H3.2_A3.1_F3.1_T3.2_[T9C]_[A10T] (ssRNA) RNA: UUUGAUUAAUAUGAUAUCGUUCUUUCUACUAUAUAUACUUUCUUUCUCGAUAUCAUAUUAAUCUUU | 103 nM
Id_ii_S2_P3E.3_K3.2_C3.2_[C-2T]_[T-1A]_H3.2_A3.1_F3.1_T3.2_[T9A]_[A10C] (ssRNA) RNA: UUUGAUUAAUAUGAUAUCGUUCUUUCUUAUAUAUAUAACUUCUUUCUCGAUAUCAUAUUAAUCUUU | 203 nM

Reference: publication PMC9352680, “A comprehensive thermodynamic model for RNA binding by the Saccharomyces cerevisiae Pumilio protein PUF4”
